Reference: US20210155689A1 (SHANGHAI PHARMAEXPLORER, published 2021)

Experiments:
[1] = molecular target: human LAG-3 on cells (HEK293-hLAG-3 stable cell line) (human) (UniProt P18627); assay: FACS, HEK293-hLAG-3, antibody 40 nM
[2] = molecular target: human LAG-3 on cells (HEK293-hLAG-3 stable cell line) (human) (UniProt P18627); assay: FACS, HEK293-hLAG-3, antibody 0.32 nM
[3] = molecular target: human LAG-3 on cells (HEK293-hLAG-3 stable cell line) (human) (UniProt P18627); assay: FACS, HEK293-hLAG-3, antibody 0.000 nM
[4] = molecular target: human LAG-3 on cells (HEK293-hLAG-3 stable cell line) (human) (UniProt P18627); assay: FACS, HEK293-hLAG-3, antibody 0.013 nM
[5] = molecular target: human LAG-3 on cells (HEK293-hLAG-3 stable cell line) (human) (UniProt P18627); assay: FACS, HEK293-hLAG-3, antibody 0.320 nM
[6] = molecular target: human LAG-3 on cells (HEK293-hLAG-3 stable cell line) (human) (UniProt P18627); assay: FACS, HEK293-hLAG-3, antibody 1.600 nM
[7] = molecular target: monkey LAG-3 on cells (HEK293-cLAG-3 stable cell line) (monkey); assay: FACS, HEK293-cLAG-3, antibody 0.064 nM
[8] = molecular target: monkey LAG-3 on cells (HEK293-cLAG-3 stable cell line) (monkey); assay: FACS, HEK293-cLAG-3, antibody 0.320 nM
[9] = molecular target: monkey LAG-3 on cells (HEK293-cLAG-3 stable cell line) (monkey); assay: FACS, HEK293-cLAG-3, antibody 8.000 nM
[10] = molecular target: human LAG-3 on cells (HEK293-hLAG-3 stable cell line) (human) (UniProt P18627); assay: FACS, HEK293-hLAG-3, antibody 40.000 nM
[11] = molecular target: monkey LAG-3 on cells (HEK293-cLAG-3 stable cell line) (monkey); assay: FACS, HEK293-cLAG-3, antibody 40.000 nM
[12] = molecular target: monkey LAG-3 on cells (HEK293-cLAG-3 stable cell line) (monkey); assay: FACS, HEK293-cLAG-3, antibody 200.000 nM
[13] = molecular target: LAG-3-hFc protein (human LAG-3 extracellular region with hFc tag) (human) (UniProt P18627); assay: FACS, inhibition of LAG-3-hFc binding to MHC II on Raji cells, antibody 0.274 nM
[14] = molecular target: LAG-3-hFc protein (human LAG-3 extracellular region with hFc tag) (human) (UniProt P18627); assay: ELISA, inhibition of LSECtin-His binding to coated LAG-3-hFc, antibody 0.000 nM, replicate 1
[15] = molecular target: LAG-3-hFc protein (human LAG-3 extracellular region with hFc tag) (human) (UniProt P18627); assay: ELISA, inhibition of LSECtin-His binding to coated LAG-3-hFc, antibody 0.013 nM, replicate 2
[16] = molecular target: LAG-3-hFc protein (human LAG-3 extracellular region with hFc tag) (human) (UniProt P18627); assay: ELISA, inhibition of LSECtin-His binding to coated LAG-3-hFc, antibody 0.064 nM, replicate 1
[17] = molecular target: LAG-3-hFc protein (human LAG-3 extracellular region with hFc tag) (human) (UniProt P18627); assay: ELISA, inhibition of LSECtin-His binding to coated LAG-3-hFc, antibody 0.320 nM, replicate 1
[18] = molecular target: LAG-3-hFc protein (human LAG-3 extracellular region with hFc tag) (human) (UniProt P18627); assay: ELISA, inhibition of LSECtin-His binding to coated LAG-3-hFc, antibody 1.600 nM, replicate 2
[19] = molecular target: T1, human LAG-3 on cells (HEK293-hLAG-3 stable cell line) (human, UniProt P18627 23-525); assay: FACS, HEK293-hLAG-3, antibody 0 nM
T1 sequence: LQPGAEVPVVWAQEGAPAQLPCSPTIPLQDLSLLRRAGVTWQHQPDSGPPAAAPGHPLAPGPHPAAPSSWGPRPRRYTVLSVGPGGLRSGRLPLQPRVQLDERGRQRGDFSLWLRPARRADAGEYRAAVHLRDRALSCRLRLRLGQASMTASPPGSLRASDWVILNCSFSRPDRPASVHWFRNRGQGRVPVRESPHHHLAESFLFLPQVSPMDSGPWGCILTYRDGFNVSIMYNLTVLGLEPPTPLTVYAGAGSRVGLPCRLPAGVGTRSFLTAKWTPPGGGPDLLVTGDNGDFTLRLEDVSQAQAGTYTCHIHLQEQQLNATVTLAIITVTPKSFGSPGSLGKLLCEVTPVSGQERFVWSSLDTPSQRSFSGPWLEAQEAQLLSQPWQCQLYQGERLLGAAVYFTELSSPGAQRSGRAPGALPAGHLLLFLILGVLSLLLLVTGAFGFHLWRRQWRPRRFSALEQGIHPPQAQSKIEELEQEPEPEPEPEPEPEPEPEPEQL

[20] = molecular target: T1, human LAG-3 on cells (HEK293-hLAG-3 …); assay: FACS, HEK293-hLAG-3, antibody 40 nM
[21] = molecular target: T1, human LAG-3 on cells (HEK293-hLAG-3 …); assay: FACS, HEK293-hLAG-3, antibody 0.32 nM
[22] = molecular target: T1, human LAG-3 on cells (HEK293-hLAG-3 …); assay: FACS, HEK293-hLAG-3, antibody 0.064 nM
[23] = molecular target: T1, human LAG-3 on cells (HEK293-hLAG-3 …); assay: FACS, HEK293-hLAG-3, antibody 0 nM; remark: listed apart in the source
[24] = molecular target: T1, human LAG-3 on cells (HEK293-hLAG-3 …); assay: FACS, HEK293-hLAG-3, antibody 8 nM
Text: A. The binding of antibodies to LAG-3 expressing cells was detected by Flow cytometry (FACS), wherein the method was according to that of Example 5.

Sequence of monkey LAG-3 on cells (HEK293-cLAG-3 stable cell line) (monkey) (P18627 other isoform, or with tags, fused parts or gaps limits assumed): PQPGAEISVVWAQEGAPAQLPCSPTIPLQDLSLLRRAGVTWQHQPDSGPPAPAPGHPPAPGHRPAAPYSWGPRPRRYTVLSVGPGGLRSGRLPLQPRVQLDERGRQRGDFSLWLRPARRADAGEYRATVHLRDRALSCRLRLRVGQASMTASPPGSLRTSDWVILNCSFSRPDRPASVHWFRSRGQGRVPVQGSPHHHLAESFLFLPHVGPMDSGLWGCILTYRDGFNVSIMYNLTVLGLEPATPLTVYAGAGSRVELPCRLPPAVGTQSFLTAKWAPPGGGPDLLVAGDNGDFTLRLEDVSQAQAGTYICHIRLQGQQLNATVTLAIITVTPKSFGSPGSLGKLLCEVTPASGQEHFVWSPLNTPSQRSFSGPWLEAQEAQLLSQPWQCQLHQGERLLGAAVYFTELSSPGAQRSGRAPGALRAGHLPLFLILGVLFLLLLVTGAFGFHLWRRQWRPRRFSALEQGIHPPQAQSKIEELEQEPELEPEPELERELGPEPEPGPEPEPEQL

For hIgG control (antibody), the Mean fluorescence intensity [1] was 4, the Mean fluorescence intensity [2] was 4 and the Mean fluorescence intensity [3] was 3. It also gave a Mean fluorescence intensity [4] of 3, a Mean fluorescence intensity [5] of 3.1 and a Mean fluorescence intensity [6] of 2.7. The Mean fluorescence intensity [7] was 3.04, the Mean fluorescence intensity [8] was 3.13 and the Mean fluorescence intensity [9] was 3.16. For the same molecule, the Mean fluorescence intensity [10] was 3.1, the Mean fluorescence intensity [11] was 2.88 and the Mean fluorescence intensity [12] was 2.9. It also gave an Inhibition rate (%) [13] of 8.1%, an Inhibition rate (%) [14] of 3.1% and an Inhibition rate (%) [15] of -15.7%. It also gave an Inhibition rate (%) [16] of -26.4%, an Inhibition rate (%) [17] of -7.9% and an Inhibition rate (%) [18] of -7.4%.

B1: 556F6B8 mouse-human chimeric antibody (antibody, V domains shown)
VH: RVQLKQSGPGLVQPSQSLSITCTVSGFSLIKYGVHWVRQSPGEGLEWLGVIWRGGITDYNAAFMSRLSITKDNSKSQVFFKMNSLQADDTAIYYCAKWDGPLAMDYWGQGTSVTVSS
VL: DIVMTQSHKFLSTSVGDRVSITCKASQDVGTTVAWYQQKPGQSPKLLIYWASTRHTGVPDRFTGSGSGTDFTLTISNVQSEDLADYFCQQYSSYPYTFGGGTKLEIK
notes: also called mAb123-556F6B8; 556F8B8
B1 showed a Mean fluorescence intensity [19] of 4, a Mean fluorescence intensity [20] of 96 and a Mean fluorescence intensity [21] of 29. It also gave a Mean fluorescence intensity [22] of 12.

B2: 405B8H3 mouse-human chimeric antibody (antibody, V domains shown)
VH: QVQLQQSGAELVRPGASVTLSCKASGYTFTDYEMHWVKQTPVHGLEWIGATDPETGNSAYNQKFKGKAIMTADKSSSTAYMELRSLTSEDSAVYYCISTGWNDWGQGTSLTVSS
VL: DIKMTQSPSSMYASLGERVTITCKASQDINSYLSWFQQKPGKSPKTLIYRADRLLDGVPSRFSGSGSGQDYSLTISSLEYGDMGIYYCLQYDEFPYTFGGGTKLEIK
notes: also called mAb103-405B8H3
B2 showed a Mean fluorescence intensity [23] of 4 and a Mean fluorescence intensity [24] of 226.
